In patent publication US20060115839A1:

Target: T1, histone H3 peptide with dimethylated Lys79 (isothermal titration calorimetry)
T1 sequence (peptide, dimethylated Lys79): IAQDFKTDLR
Assay: isothermal titration calorimetry (data not shown)

Chain of 53BP1 tandem tudor domain (isothermal titration calorimetry) (P70399 1480-1621 limits assumed): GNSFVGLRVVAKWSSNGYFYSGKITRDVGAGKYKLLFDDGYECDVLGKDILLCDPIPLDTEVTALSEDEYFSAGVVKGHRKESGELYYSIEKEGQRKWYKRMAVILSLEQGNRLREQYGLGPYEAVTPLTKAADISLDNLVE

Kd: < 1000 nM
Substance: 53BP1 tandem tudor domain (isothermal titration calorimetry) (from UniProt P70399 1480-1621)
